Literature values, collected in patent US20250341526A1, “NOVEL DYES” (Quantum-Si Incorporated, priority 2024, published 2025).

B1: PS624: amino acid recognition protein, SEQ ID NO: 184 (protein, listed as Eremothecium sinecaudum)
chain: MPKNHNHKGRNCGRSFQPGEPLYRCQECAYDDTCVLCIRCFNPLDHVNHHVSTHICSEFNDGICDCGDVEAWNVELNCKAEED
B2: PS629: amino acid recognition protein, SEQ ID NO: 189 (protein, listed as Pichia pastoris)
chain: MCPNYKHHGRPCARQFKQGEPIYRCYECGFDETCVMCMHCFNREQHRDHEVSISIASSSNDGICDCGDPQAWNIELHCQSELD
B3: PS628: amino acid recognition protein, SEQ ID NO: 188 (protein)
chain: MSHRAYHKNSPCGRIFRKGEPIHRCLTCGFDDTCALCSHCFQPEYHEGHKVHIGICQRENGGVCDCGDPEAWTQELFCPYAVD
modifications: Candida albicans
B4: PS533: amino acid recognition protein, SEQ ID NO: 161 (protein, listed as Contarinia nasturtii)
chain: MVCGRVFKMNEPFYSCRECGMDPTCVLCVNCFKQSAHRHHKYKMGTSAGGGCCDCGDNEAWKQDHYCDEHTK
B5: PS626: amino acid recognition protein, SEQ ID NO: 186 (protein, listed as Zygosaccharomyces parabailii)
chain: MYHVYKHSGRNCGRKFKVGEPIYRCHECGYDETCVLCIHCFNPKDHDSHHVYIDICSEFSTGICDCGDTEAFVNPLHCKAEED
B6: Homo sapiens UBR2: amino acid recognition protein, SEQ ID NO: 174 (protein, listed as Homo sapiens)
chain: MGPLGSLCGRVFKVGEPTYSCRDCAVDPTCVLCMECFLGSIHRDHRYRMTTSGGGGFCDCGDTEAWKEGPYCQKHE
B7: PS537: amino acid recognition protein, SEQ ID NO: 165 (protein, listed as Aedes aegypti)
chain: MVCGRVFKIGEPTYSCRECSMDPTCVLCSSCFKKSSHRLHKYKMSTSGGGGCCDCGDHEAWKRDPSCEEHAV
B8: PS534: amino acid recognition protein, SEQ ID NO: 162 (protein)
chain: MKCGHIFRKGEVFYRCKTCSVDSNSALCVKCFRATSHKDHETSFTVSAGSGGCCDCGNAAAWIGDVSCKIHSH
modifications: Schizosaccharomyces pombe
B9: Escherichia coli leucyl/phenylalanyl-tRNA-protein transferase: amino acid recognition protein, SEQ ID NO: 111 (protein, listed as Escherichia coli)
chain: MRLVQLSRHSIAFPSPEGALREPNGLLALGGDLSPARLLMAYQRGIFPWFSPGDPILWWSPDPRAVLWPESLHISRSMKRFHKRSPYRVTMNYAFGQVIEGCASDREEGTWITRGVVEAYHRLHELGHAHSIEVWREDELVGGMYGVAQGTLFCGESMFSRMENASKTALLVFCEEFIGHGGKLIDCQVLNDHTASLGACEIPRRDYLNYLNQMRLGRLPNNFWVPRCLFSPQELE
B10: PS536: amino acid recognition protein, SEQ ID NO: 164 (protein, listed as Aphis gossypii)
chain: MVCGRVFKMGEPTYNCRECGMDSTCVLCVDCFKRSPHKNHKYKMGTSYGGGCCDCGDVEAWKHDPYCQTHKL
B11: PS622: amino acid recognition protein, SEQ ID NO: 182 (protein, listed as Kluyveromyces dobzhanskii)
chain: MHSRFNHAGRICASKFKVGEPIYRCKECSFDDTCVICVNCFNPKDHVGHHVYTSICSEFNNGICDCGDTEAWNHDMHCKADEN
B12: PS621: amino acid recognition protein, SEQ ID NO: 181 (protein, listed as Kluyveromyces marxianus)
chain: MHSKFSHAGRICGAKFKVGEPIYRCKECSFDDTCVLCVNCFNPKDHTGHHVYTTICTEFNNGICDCGDKEAWNHTLFCKAEEG
B13: PS619: amino acid recognition protein, SEQ ID NO: 179 (protein, listed as Vanderwaltozyma polyspora)
chain: MENLHIGSCCNRQCYPTQTVYYCLTCTINPLYEICELCFDEDKHVGHTYISKSVIRPEGKVCHCGNPNVFKKPEFAFNCKN
B14: PS618: amino acid recognition protein, SEQ ID NO: 178 (protein, listed as Zygosaccharomyces bailii)
chain: MNASHKGAMCSKQCYPTETVFYCFTCTTNPLYEICESCFDEEKHRGHLYTAKVVVRPEGRVCHCGDPFVFKEPRFAFLCKN
B15: PS535: amino acid recognition protein, SEQ ID NO: 163 (protein, listed as Mus musculus)
chain: MLCGRVFKVGEPTYSCRDCAVDPTCVLCMECFLGSIHRDHRYRMTTSGGGGFCDCGDTEAWKEGPYCQKHKL
B16: PS617: amino acid recognition protein, SEQ ID NO: 177 (protein, listed as Eremothecium sinecaudum)
chain: MPKEHRGTSCNKHCQPTETVYYCFDCTKNPLYEICEECFDADKHLGHRWTSKVVSRPEGKICHCGDPSGLTDPENGYECKN
B17: PS542: amino acid recognition protein, SEQ ID NO: 171 (protein, listed as Trichuris suis)
chain: MRCNHVFANGEATYSCRGCAADPTCVLCASCFELSAHKEHKYMITTSSGTGYCDCGDPEAWKADPFCQQHQP
B18: PS615: amino acid recognition protein, SEQ ID NO: 175 (protein, listed as Kluyveromyces marxianus)
chain: MVNEHRGSQCSKQCHGTETVYYCFDCTKNPLYEICEECFDETQHMGHRYTSRVVTRPEGKVCHCGDISGYNNPEKAFQCKI
B19: PS616: amino acid recognition protein, SEQ ID NO: 176 (protein, listed as Kluyveromyces lactis)
chain: MHNDHRGSQCSKQCHGTETVYYCFDCTKNPLYEICEDCFDESQHIGHRYTSRVVTRPEGKVCHCGDISSYNDPKKAFQCRI
B20: PS538: amino acid recognition protein, SEQ ID NO: 166 (protein, listed as Saccharomyces cerevisiae)
chain: MGDVHKHTGRNCGRKFKIGEPLYRCHECGCDDTCVLCIHCFNPKDHVNHHVCTDICTEFTSGICDCGDEEAWNSPLHCKAEEQ
B21: PS625: amino acid recognition protein, SEQ ID NO: 185 (protein, listed as Saccharomyces eubayanus)
chain: MGDVHKHTGRNCGRKFKIGEPLYRCHECGCDDTCVLCIHCFNPKDHINHHVCTDICSEFTSGICDCGDEEAWNSSLHCKAEEQ
B22: PS25: amino acid recognition protein, SEQ ID NO: 167 (protein, listed as Saccharomyces cerevisiae)
chain: MGSVHKHTGRNCGRKFKIGEPLYRCHECGCDDTCVLCIHCFNPKDHVNHHVCTDICTEFTSGICDCGDEEAWNSPLHCKAEEQ
B23: PS539: amino acid recognition protein, SEQ ID NO: 168 (protein, listed as Kazachstania africana)
chain: MQTSFTHKGRNCGRKFKVGEPLYRCHECGFDDTCVLCIHCFNPADHENHHIYTDICNDFTSGICDCGDTEAWNGDLHCKAEEI
B24: PS627: amino acid recognition protein, SEQ ID NO: 187 (protein, listed as Zygosaccharomyces mellis)
chain: MPKYHQHSGRYCGRKFKVGEPIYRCHECGFDETCVICIHCFNAKDHETHHVSVSICSEYSTGICDCGDTEAFVNPLHCRAEEV
B25: PS540: amino acid recognition protein, SEQ ID NO: 169 (protein, listed as Clathrospora elynae)
chain: MPCGHIFKNGEATYRCKTCTADDTCVLCARCFDASDHEGHQVFVSVSPGNSGCCDCGDDEAWVRPVHCNMHSA
B26: PS541: amino acid recognition protein, SEQ ID NO: 170 (protein)
chain: MRCGHIFRAGEATYRCITCAADDTCVLCSRCFDASDHTGHQYQISLSSGNCGCCDCGDEEAWRLPLFCAIHTD
modifications: Aspergillus neoniger
B27: PS620: amino acid recognition protein, SEQ ID NO: 180 (protein, listed as Saccharomyces cerevisiae)
chain: MGNMHIGTACTRLCFPSETIYYCFTCSTNPLYEICELCFDKEKHVNHSYVAKVVMRPEGRICHCGDPFAFNDPSDAFKCKN
B28: PS544: amino acid recognition protein, SEQ ID NO: 173 (protein, listed as Homo sapiens)
chain: MGPLGSLCGRVFKSGETTYSCRDCAIDPTCVLCMDCFQDSVHKNHRYKMHTSTGGGFCDCGDTEAWKTGPFCVNHEP
B29: PS623: amino acid recognition protein, SEQ ID NO: 183 (protein, listed as Kazachstania naganishii)
chain: MSKQFRHKGRNCGRKFRLGEPLYRCQECGYDDTCVLCINCFNPKDHEGHHIYTDICNDFTSGICDCGDEEAWLSPLHCKAEED
B30: PS543: amino acid recognition protein, SEQ ID NO: 172 (protein, listed as Trichinella spiralis)
chain: MKCNRQLICGEPTYCCLDCACDQTCIFCHACFQSSEHKNHRYSMSTSEGSGTCDCGDKEAWKSNYYCLNHKP

Tested on: amino acid at a terminal position of a polypeptide
Details: Table 2; amino acid at terminal position (phosphotyrosine also internal); inferred from literature and/or demonstrated by the inventors; cited from earlier work

Row | Molecule | Binding Pref.
1 | B1 | K, R, H
2 | B2 | K, R, H
3 | B3 | K, R, H
4 | B4 | K, R, H
5 | B5 | K, R, H
6 | B6 | K, R, H
7 | B7 | K, R, H
8 | B8 | K, R, H
9 | B9 | K, R
10 | B10 | K, R, H
11 | B11 | K, R, H
12 | B12 | K, R, H
13 | B13 | K, R, H
14 | B14 | K, R, H
15 | B15 | K, R, H
16 | B16 | K, R, H
17 | B17 | K, R, H
18 | B18 | K, R, H
19 | B19 | K, R, H
20 | B20 | K, R, H
21 | B21 | K, R, H
22 | B22 | K, R, H
23 | B23 | K, R, H
24 | B24 | K, R, H
25 | B25 | K, R, H
26 | B26 | K, R, H
27 | B27 | K, R, H
28 | B28 | K, R, H
29 | B29 | K, R, H
30 | B30 | K, R, H
